The text below walks through data of PMC7117912.

Assay [1] addresses HLA-A*02:01 (human MHC I heavy chain ectodomain, amino acids 1-278) refolded with human β2-microglobulin (human).
For assay [2], the target named is H2-D^b (mouse MHC I heavy chain ectodomain) refolded with human β2-microglobulin (mouse | human). Description: SEC. For orientation: In gel filtration, larger molecules generally elute earlier.
For assay [3] the target is unchanged. Description: fluorescence polarisation. (Fluorescence polarisation rises when a labelled molecule tumbles more slowly, as on binding a larger partner.)
Assay [4] deals with HLA-A*02:01 (human MHC I heavy chain ectodomain, amino acids 1-278) refolded with human β2-microglobulin (human). The experiment in a line: fluorescence polarisation.

For the substance “TAPBPR^Tsn-SL (human TAPBPR lumenal domain with the scoop loop replaced by the corresponding shorter loop of tapasin) (from UniProt Q9BX59 33-401) (domain or fragment)”, the dissociation rate constant of fluorescent peptide FLPSDC*FPSF from HLA-A*02:01 (300 nM) with 1 µM TAPBPR and 1000-fold excess of competitor peptide (uncatalyzed 1.90 × 10^-3 s^-1) in assay [1] was determined as 0.0263 s⁻¹. The substance further gave a reduction of the amount of complex against TAPBPR^wt (SEC peak area) in assay [2] of 40%. The percent of fluorescent peptide released at 1 µM TAPBPR in assay [3] was determined as 12%.

For the substance “TAPBPR^wt (wildtype human TAP-binding protein-related, ER-lumenal domain) (from UniProt Q9BX59 33-401) (domain or fragment)”, in assay [1], the dissociation rate constant of fluorescent peptide FLPSDC*FPSF from HLA-A*02:01 (300 nM) with 1 µM TAPBPR and 1000-fold excess of competitor peptide came to 0.0158 s⁻¹. In assay [3], the percent of fluorescent peptide released at 1 µM TAPBPR came out at 60% and the percent of total MHC I-associated peptide dissociated at saturation (3 µM TAPBPR) amounted to 70%. This substance registered a percent of total MHC I-associated peptide dissociated at saturation (3 µM TAPBPR) in assay [4] of 80%.

“TAPBPR^ΔSL (human TAPBPR lumenal domain with the scoop loop replaced by three glycine residues) (from UniProt Q9BX59 33-401) (domain or fragment)”: in assay [1], the dissociation rate constant of fluorescent peptide FLPSDC*FPSF from HLA-A*02:01 (300 nM) with 1 µM TAPBPR and 1000-fold excess of competitor peptide was 0.00852 s⁻¹. Moreover, the reduction of the amount of complex against TAPBPR^wt (SEC peak area) in assay [2] came out at 90%.
